From US20210388102A1
Changes are numbered by the printed parent chain.

B1: hMAB-A (2.2) (antibody, human IgG1, kappa, V domains shown)
VH: EVQLVESGGGLVKPGGSLRLSCAASGFTFSSYWMHWVRQAPGKGLEWVGEIIPIFGHTNYNEKFKSRFTISLDNSKNTLYLQMGSLRAEDTAVYYCARGGYYYYGSRDYFDYWGQGTTVTVSS
VL: DIVMTQSPDSLAVSLGERATISCKASQSVDYSGDSYMNWYQQKPGQPPKLLIYAASDLESGIPARFSGSGSGTDFTLTISSLEPEDFATYYCQQSHEDPFTFGQGTKLEIKR
B2: hMAB-A (2D.2) (antibody, V domains shown)
VH: B1 VH with G105T, S106G, R107K, D108G, Y109V, F110L
VL: DIVMTQSPDSLAVSLGERATISCKASQSVDYSGDSYMNWYQQKPGQPPKLLIYAASDLESGIPARFSGSGSGTDFTLTISSLEPEDFATYYCQQSHEDPFTFGQGTKLEIK
B3: hMAB-A (2C.2) (antibody, human IgG1, kappa, V domains shown)
VH: B1 VH with G105P, S106R, R107F, D108G, Y109W, F110L
VL: B1 VL
B4: hMAB-A (2B.2) (antibody, V domains shown)
VH: B1 VH with G105I, S106G, R107K, D108G, Y109V, F110L
VL: B2 VL

These binders were tested against His peptide-tagged soluble cynoADAM9 (cynoADAM9-His) (cynomolgus monkey) (assay: SPR (BIACORE), antibody captured, cynoADAM9-His in flow).

Row | Kd | koff | kon | Binder
1 | 110000 pM | 0.022 s⁻¹ | 200000 M⁻¹ s⁻¹ | B1
2 | 700 pM | 0.0003 s⁻¹ | 420000 M⁻¹ s⁻¹ | B2
3 | < 300 pM | < 1e-05 s⁻¹ | 350000 M⁻¹ s⁻¹ | B3
4 | 200 pM | 6.6e-05 s⁻¹ | 340000 M⁻¹ s⁻¹ | B4
